Measurements published in paper doi:10.1101/2024.10.11.617910.

Target: pyroglutamate beta-amyloid peptide (pGlu3-Aβ)
Test: SiMoA

B1: Lecanemab (antibody, V domains shown)
VH: EVQLVESGGGLVQPGGSLRLSCSASGFTFSSFGMHWVRQAPGKGLEWVAYISSGSSTIYYGDTVKGRFTISRDNAKNSLFLQMSSLRAEDTAVYYCAREGGYYYGRSYYTMDYWGQGTTVTVSS
VL: DVVMTQSPLSLPVTPGAPASISCRSSQSIVHSNGNTYLEWYLQKPGQSPKLLIYKVSNRFSGVPDRFSGSGSGTDFTLRISRVEAEDVGIYYCFQGSHVPPTFGPGTKLEIK
limit of detection (LoD): 4 pM
